Experimental data as given in the supplement of paper PMC9876800.

Test system: peptide library, one residue held at a place counted from the S/T acceptor
Experiment: relative phosphorylation of the sub-library (ratio to the mean residue at this position); higher = residue favoured
Outline: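 Spots on streptavidin membranes were phosphorimaged and quantified by densitometry to measure phosphorylation of biotinylated degenerate peptide sub-libraries by purified recombinant kinases, human or orthologue constructs. The reactions ran in 384-well plates for 90 min under kinase-specific conditions, with peptides at 50 μM and 50 μM ATP spiked with γ-32P-ATP. Relative sub-library phosphorylation is the ratio to the mean residue at that position.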

PDPK1, construct: Full length, human, sequence (O15530 whole entry, looked up): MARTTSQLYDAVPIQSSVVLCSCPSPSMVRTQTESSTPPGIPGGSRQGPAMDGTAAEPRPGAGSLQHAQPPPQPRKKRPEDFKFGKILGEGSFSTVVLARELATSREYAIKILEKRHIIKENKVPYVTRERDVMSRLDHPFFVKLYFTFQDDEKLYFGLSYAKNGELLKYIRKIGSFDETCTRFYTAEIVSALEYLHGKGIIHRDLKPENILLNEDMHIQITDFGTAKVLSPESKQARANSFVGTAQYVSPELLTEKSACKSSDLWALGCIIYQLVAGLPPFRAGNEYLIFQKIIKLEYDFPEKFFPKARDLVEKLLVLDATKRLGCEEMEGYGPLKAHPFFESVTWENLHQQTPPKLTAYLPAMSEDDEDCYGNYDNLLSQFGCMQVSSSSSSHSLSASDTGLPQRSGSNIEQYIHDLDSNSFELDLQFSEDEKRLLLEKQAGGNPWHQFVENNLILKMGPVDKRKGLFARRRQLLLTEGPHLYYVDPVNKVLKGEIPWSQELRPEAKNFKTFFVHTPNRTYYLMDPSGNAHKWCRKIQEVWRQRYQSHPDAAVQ
MAPK7, construct: aa1-405, human, sequence (Q13164 1-405, looked up): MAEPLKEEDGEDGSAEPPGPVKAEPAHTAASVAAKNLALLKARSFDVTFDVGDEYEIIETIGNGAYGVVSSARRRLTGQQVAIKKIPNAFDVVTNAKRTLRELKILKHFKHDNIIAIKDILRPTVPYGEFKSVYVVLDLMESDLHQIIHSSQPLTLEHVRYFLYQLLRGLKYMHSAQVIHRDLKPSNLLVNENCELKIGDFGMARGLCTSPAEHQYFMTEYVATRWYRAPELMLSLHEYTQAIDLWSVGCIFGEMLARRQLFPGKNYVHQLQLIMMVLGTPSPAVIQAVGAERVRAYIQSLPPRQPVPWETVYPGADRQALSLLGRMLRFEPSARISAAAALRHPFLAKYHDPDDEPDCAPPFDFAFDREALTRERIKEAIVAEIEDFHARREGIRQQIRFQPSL
PIM2, construct: Full length with a 14aa C-terminal extension from Gateway cloning, human, sequence (Q9P1W9 whole entry, looked up): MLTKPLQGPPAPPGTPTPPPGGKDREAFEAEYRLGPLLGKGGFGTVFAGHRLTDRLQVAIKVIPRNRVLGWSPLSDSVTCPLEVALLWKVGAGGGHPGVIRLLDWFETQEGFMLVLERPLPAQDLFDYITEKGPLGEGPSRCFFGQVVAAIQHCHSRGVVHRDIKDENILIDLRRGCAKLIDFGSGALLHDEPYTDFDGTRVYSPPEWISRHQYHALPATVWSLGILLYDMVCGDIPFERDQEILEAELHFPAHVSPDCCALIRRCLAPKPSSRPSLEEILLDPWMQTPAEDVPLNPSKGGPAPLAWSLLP

MAPK7, construct: aa1-405, human (from UniProt Q13164)
relative phosphorylation
Settings	at +1	at +2	at +3	at +4	at -1	at -2	at -3	at -4	at -5
A fixed	5.25	0.808	0.997	0.943	0.957	0.867	1.2	1.21	1.14
D fixed	0.374	0.579	0.866	1.2	0.745	0.491	0.862	1.11	0.83
E fixed	0.338	0.519	0.827	0.951	0.646	0.484	0.872	1.12	0.81
F fixed	0.47	0.908	0.941	0.922	0.956	0.658	0.778	0.919	1.03
G fixed	1.67	1	1.14	1.08	0.808	0.666	1.08	1.09	0.977
H fixed	0.466	0.917	0.886	1.05	1.28	0.568	0.822	0.913	1.07
I fixed	0.372	1.08	1.45	0.998	0.684	1.43	0.988	0.891	1.02
K fixed	0.449	1.24	0.59	0.947	0.834	0.797	0.827	0.943	0.988
L fixed	0.54	1.02	1.27	0.918	1.61	2.64	1.07	0.938	1.06
M fixed	0.523	1.08	1.12	0.993	1.66	1.91	1.13	0.976	0.986
N fixed	0.464	0.963	0.789	0.8	0.948	0.61	1.06	0.954	1
P fixed	3.79	0.758	1.13	1.04	1.13	2.1	1.87	1.16	1.03
Q fixed	0.438	0.927	0.818	1.07	1.02	0.928	0.926	0.941	0.867
R fixed	0.471	2	0.794	0.939	0.983	0.695	1.04	0.894	1.11
V fixed	0.426	1.16	1.08	0.975	0.69	0.986	0.96	0.982	1.01
W fixed	0.534	1.1	1.2	1.21	0.844	0.631	0.791	1.03	0.892
Y fixed	0.429	0.945	1.1	0.97	1.2	0.533	0.737	0.931	1.18
pThr fixed	0.632	0.779	0.702	0.863	0.541	0.976	0.946	1.07	0.901
pTyr fixed	0.518	0.587	0.989	0.835	0.945	0.815	1.02	1.11	1.04

MAPK9, construct: Full length, human (from UniProt P45984)
relative phosphorylation
Settings	at +1	at +2	at +3	at +4	at -1	at -2	at -3	at -4	at -5
A fixed	0.338	0.988	1.43	1.17	1.16	2.09	1.24	1.17	1.14
D fixed	0.147	0.96	1.38	1.21	0.686	0.686	1.13	1.19	0.957
E fixed	0.151	0.694	1.34	1.27	0.862	0.379	1.19	1.09	0.869
F fixed	0.358	0.75	0.781	0.805	0.68	0.717	0.814	0.965	0.946
G fixed	0.646	1.33	1.53	1.32	1.28	0.653	1.21	1.14	1.15
H fixed	0.195	0.997	0.985	1.02	1	0.494	0.95	0.878	0.924
I fixed	0.433	1.24	0.638	0.879	0.695	1.28	0.76	0.861	0.801
K fixed	0.164	0.632	0.648	0.795	1.09	0.545	0.915	1.08	1.34
L fixed	0.462	1.18	0.879	0.787	1.37	2.05	1.08	1	0.923
M fixed	0.314	1.75	0.959	0.913	1.4	1.28	0.93	1.04	0.801
N fixed	0.17	1.07	0.973	0.934	0.854	0.494	1.07	0.886	0.94
P fixed	12.4	0.721	0.886	1.66	1.28	2.58	1.16	1.24	1.38
Q fixed	0.193	1.06	1.01	1.04	1.36	0.741	1.07	1.06	1.02
R fixed	0.187	0.803	0.908	0.802	1.25	0.635	1.09	0.938	1.02
V fixed	0.339	1.4	0.845	0.869	0.76	1.32	0.768	0.365	0.833
W fixed	0.303	0.69	0.951	0.817	0.533	0.543	0.729	1.02	0.886
Y fixed	0.239	0.745	0.859	0.712	0.743	0.511	0.875	1.09	1.07
pThr fixed	0.495	2.23	1.06	1.16	0.432	0.933	0.957	0.975	0.996
pTyr fixed	0.347	0.987	1.07	0.719	0.468	0.429	0.778	0.808	0.836

PDPK1, construct: Full length, human (from UniProt O15530)
relative phosphorylation
Settings	at +1	at +2	at +3	at +4	at -1	at -2	at -3	at -4	at -5
A fixed	0.609	1.18	0.927	1.02	0.812	1.48	1	1.13	1.12
D fixed	0.37	0.618	0.647	0.802	0.519	0.523	0.571	0.935	1.25
E fixed	0.402	0.537	0.665	0.815	0.518	0.561	0.615	0.927	1.04
F fixed	4.59	1.23	1.31	0.991	1.22	1.33	0.794	0.958	0.875
G fixed	0.638	0.747	1.19	1.13	1.43	1.16	1.04	1.27	1.21
H fixed	0.602	1.26	1.04	1.01	0.954	1	0.863	0.982	0.919
I fixed	1.15	1.16	1.07	0.955	0.673	0.733	0.789	0.909	0.973
K fixed	0.798	0.985	0.977	1.01	1.32	1.18	1.18	1.06	0.956
L fixed	1.16	1.01	0.967	1	0.958	0.974	0.779	0.863	0.826
M fixed	1.89	1.13	1.01	1.02	1.22	0.866	0.775	0.846	0.859
N fixed	0.515	0.759	0.822	0.822	1.11	0.931	0.754	0.866	0.864
P fixed	0.556	0.755	0.774	1.39	1.03	0.834	1	1.11	1.14
Q fixed	0.622	0.722	0.77	0.871	0.847	0.94	0.843	0.89	0.788
R fixed	0.875	1.18	1.29	1.21	1.61	1.49	3.72	1.18	1.09
V fixed	0.664	1.21	1.02	0.868	0.661	0.71	0.762	1.07	1.19
W fixed	0.709	0.98	1.28	1.13	0.873	0.987	0.749	0.994	0.919
Y fixed	0.848	1.54	1.25	0.947	1.24	1.3	0.761	1.02	0.99
pThr fixed	0.497	0.664	0.71	0.809	0.604	0.738	0.854	1.12	1.62
pTyr fixed	0.432	0.616	0.903	0.852	0.738	0.821	1.13	2.5	2.94

PIM2, construct: Full length with a 14aa C-terminal extension from Gateway cloning, human (from UniProt Q9P1W9)
relative phosphorylation
Settings	at +1	at +2	at +3	at +4	at -1	at -2	at -3	at -4	at -5
A fixed	1.17	0.889	0.802	0.851	0.852	0.568	0.578	0.935	0.695
D fixed	0.638	0.729	0.859	0.833	0.593	0.32	0.269	0.497	0.413
E fixed	0.834	0.713	0.752	0.764	0.587	0.343	0.295	0.666	0.413
F fixed	0.653	0.75	0.909	0.874	0.887	0.911	0.388	0.776	0.547
G fixed	3.18	0.978	0.99	1.08	0.814	0.418	0.43	0.891	0.789
H fixed	0.871	1.48	1.31	1.04	1.16	2.64	0.78	1.01	1.01
I fixed	0.723	0.606	0.709	0.841	0.699	0.541	0.366	0.837	0.588
K fixed	1.14	1.33	1.24	1.28	1.33	1.7	1.91	1.9	2.91
L fixed	0.663	0.664	0.721	0.793	0.912	0.594	0.381	0.79	0.608
M fixed	0.861	0.71	0.783	0.845	0.921	0.649	0.397	0.985	0.6
N fixed	1.11	1.07	0.958	1.11	1.18	1.04	0.48	0.988	0.728
P fixed	0.727	1.13	1.04	1.3	1.86	0.524	0.453	0.755	0.791
Q fixed	1.04	1.02	1.1	1.05	0.875	0.787	0.591	0.948	0.807
R fixed	1.34	2.57	2.27	1.62	1.55	3.21	8.41	2.6	4.14
V fixed	0.765	0.65	0.695	0.793	0.871	0.571	0.405	0.906	0.642
W fixed	0.626	0.867	0.955	1.05	0.701	1.07	0.475	0.738	0.576
Y fixed	0.66	0.848	0.923	0.885	1.2	1.11	0.395	0.777	0.741
pThr fixed	0.857	0.654	0.668	0.888	0.379	0.35	0.342	0.632	0.471
pTyr fixed	0.608	0.69	0.846	0.748	0.862	0.62	0.325	0.545	0.522
